Measured values published in IntAct's records for PubMed 35512704.

B1: Mothers against decapentaplegic homolog 4 (Homo sapiens), Q13485 (parent)
chain: MDNMSITNTPTSNDACLSIVHSLMCHRQGGESETFAKRAIESLVKKLKEKKDELDSLITAITTNGAHPSKCVTIQRTLDGRLQVAGRKGFPHVIYARLWRWPDLHKNELKHVKYCQYAFDLKCDSVCVNPYHYERVVSPGIDLSGLTLQSNAPSSMMVKDEYVHDFEGQPSLSTEGHSIQTIQHPPSNRASTETYSTPALLAPSESNATSTANFPNIPVASTSQPASILGGSHSEGLLQIASGPQPGQQQNGFTGQPATYHHNSTTTWTGSRTAPYTPNLPHHQNGHLQHHPPMPPHPGHYWPVHNELAFQPPISNHPAPEYWCSIAYFEMDVQVGETFKVPSSCPIVTVDGYVDPSGGDRFCLGQLSNVHRTEAIERARLHIGKGVQLECKGEGDVWVRCLSDHAVFVQSYYLDREAGRAPGDAVHKIYPSAYIKVFDLRQCHRQMQQQAATAQAAAAAQAAAVAGNIPGPGSVGGIAPAISLSAAAGIGVDDLRRLCILRMSFVKGWGPDYPRQSIKETPCWIEIHLHRALQLLDEVLHTMPIADPQPLD
partner: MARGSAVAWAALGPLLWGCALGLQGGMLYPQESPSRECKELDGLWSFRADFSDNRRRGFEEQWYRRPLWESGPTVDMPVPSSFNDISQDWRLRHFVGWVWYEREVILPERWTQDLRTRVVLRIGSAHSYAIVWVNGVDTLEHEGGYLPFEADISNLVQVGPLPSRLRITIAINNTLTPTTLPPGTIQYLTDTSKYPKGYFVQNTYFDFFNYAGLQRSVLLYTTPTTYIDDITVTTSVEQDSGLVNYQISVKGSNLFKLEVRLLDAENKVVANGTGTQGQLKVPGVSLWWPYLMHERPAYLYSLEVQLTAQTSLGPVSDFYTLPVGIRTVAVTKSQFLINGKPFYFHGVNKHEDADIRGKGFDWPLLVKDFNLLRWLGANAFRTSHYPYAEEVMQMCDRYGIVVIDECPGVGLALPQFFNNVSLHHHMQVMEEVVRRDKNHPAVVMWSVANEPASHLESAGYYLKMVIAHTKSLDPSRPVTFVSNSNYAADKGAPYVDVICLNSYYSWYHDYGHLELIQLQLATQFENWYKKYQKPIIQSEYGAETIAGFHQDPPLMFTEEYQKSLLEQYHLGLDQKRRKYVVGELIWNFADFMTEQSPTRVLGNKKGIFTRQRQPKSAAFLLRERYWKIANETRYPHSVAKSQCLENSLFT
B2: Mothers against decapentaplegic homolog 4 (Homo sapiens), Q13485 (parent)
chain: B1 chain
partner: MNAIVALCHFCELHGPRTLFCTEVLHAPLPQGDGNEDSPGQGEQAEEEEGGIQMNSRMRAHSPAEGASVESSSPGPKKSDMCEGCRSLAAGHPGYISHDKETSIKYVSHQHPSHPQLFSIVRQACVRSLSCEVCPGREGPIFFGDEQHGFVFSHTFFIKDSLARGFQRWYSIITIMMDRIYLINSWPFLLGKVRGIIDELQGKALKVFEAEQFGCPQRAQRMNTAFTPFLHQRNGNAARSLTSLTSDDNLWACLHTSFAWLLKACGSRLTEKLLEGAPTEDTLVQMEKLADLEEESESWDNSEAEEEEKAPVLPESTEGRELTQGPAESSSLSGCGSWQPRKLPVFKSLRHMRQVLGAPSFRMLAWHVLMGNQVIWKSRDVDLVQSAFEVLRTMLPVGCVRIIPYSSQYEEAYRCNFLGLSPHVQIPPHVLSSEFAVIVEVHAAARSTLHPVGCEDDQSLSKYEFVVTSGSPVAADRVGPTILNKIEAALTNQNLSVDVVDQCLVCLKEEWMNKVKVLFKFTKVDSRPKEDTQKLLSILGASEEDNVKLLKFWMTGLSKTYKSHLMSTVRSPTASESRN
B3: Mothers against decapentaplegic homolog 4 (Homo sapiens), Q13485 (parent)
chain: B1 chain
partner: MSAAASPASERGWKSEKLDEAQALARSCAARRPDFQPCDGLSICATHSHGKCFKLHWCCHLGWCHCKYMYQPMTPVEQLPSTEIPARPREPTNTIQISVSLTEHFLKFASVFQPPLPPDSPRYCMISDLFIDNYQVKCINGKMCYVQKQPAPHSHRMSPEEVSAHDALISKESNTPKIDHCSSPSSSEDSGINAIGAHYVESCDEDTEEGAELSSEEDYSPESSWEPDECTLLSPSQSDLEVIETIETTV
B4: Mothers against decapentaplegic homolog 4 (Homo sapiens), Q13485 (parent)
chain: B1 chain
partner: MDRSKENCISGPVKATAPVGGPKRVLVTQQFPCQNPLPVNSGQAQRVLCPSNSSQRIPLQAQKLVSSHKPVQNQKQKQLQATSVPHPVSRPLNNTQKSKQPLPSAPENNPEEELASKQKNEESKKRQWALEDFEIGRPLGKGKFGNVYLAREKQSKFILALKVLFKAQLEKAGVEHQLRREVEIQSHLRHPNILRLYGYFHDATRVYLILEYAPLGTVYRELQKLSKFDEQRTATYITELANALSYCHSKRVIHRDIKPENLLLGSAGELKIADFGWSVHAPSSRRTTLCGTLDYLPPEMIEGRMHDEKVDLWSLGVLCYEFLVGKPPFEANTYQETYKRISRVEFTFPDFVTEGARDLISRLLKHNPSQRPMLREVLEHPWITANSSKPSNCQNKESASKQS
B5: Mothers against decapentaplegic homolog 4 (Homo sapiens), Q13485 (parent)
chain: B1 chain
partner: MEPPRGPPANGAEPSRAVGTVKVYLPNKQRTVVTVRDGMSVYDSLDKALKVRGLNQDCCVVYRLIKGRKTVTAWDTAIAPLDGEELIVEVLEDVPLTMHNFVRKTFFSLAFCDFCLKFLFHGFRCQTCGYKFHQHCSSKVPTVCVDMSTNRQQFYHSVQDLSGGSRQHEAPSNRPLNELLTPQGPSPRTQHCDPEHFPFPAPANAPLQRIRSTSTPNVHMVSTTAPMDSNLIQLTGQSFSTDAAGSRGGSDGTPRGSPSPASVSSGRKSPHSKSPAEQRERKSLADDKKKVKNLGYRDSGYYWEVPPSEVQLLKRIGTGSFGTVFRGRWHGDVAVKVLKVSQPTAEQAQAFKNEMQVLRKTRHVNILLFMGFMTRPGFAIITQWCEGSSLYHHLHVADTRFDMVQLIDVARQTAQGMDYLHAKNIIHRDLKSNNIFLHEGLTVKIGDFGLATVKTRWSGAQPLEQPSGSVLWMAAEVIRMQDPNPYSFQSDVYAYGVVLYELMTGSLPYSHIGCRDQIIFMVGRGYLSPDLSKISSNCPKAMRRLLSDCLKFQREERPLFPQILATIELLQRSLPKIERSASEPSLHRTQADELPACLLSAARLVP
B6: Mothers against decapentaplegic homolog 4 (Homo sapiens), Q13485 (parent)
chain: B1 chain
partner: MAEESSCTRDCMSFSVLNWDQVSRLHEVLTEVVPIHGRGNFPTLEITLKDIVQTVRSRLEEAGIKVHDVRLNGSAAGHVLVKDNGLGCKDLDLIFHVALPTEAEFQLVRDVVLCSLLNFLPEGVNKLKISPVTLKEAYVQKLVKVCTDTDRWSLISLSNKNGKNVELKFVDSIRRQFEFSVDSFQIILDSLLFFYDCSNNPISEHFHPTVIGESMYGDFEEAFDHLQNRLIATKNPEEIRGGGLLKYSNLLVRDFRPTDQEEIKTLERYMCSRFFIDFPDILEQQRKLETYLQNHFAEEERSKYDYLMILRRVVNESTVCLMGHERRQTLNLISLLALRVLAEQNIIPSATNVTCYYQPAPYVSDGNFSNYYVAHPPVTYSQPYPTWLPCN

Variants of: B1
Conditions: with bglr_human GUSB

effect of a mutation on the interaction | Variant
with no effect | D351H

Variants of: B1
Conditions: with bglr_human GUSB
Remark: another data set of the same source

effect of a mutation on the interaction | Variant
with no effect | G386D

Variants of: B1
Conditions: with bglr_human GUSB
Remark: another data set of the same source

effect of a mutation on the interaction | Variant
with no effect | R361H

Variants of: B1
Conditions: with bglr_human GUSB
Remark: another data set of the same source

effect of a mutation on the interaction | Variant
with no effect | R361C

Variants of: B2
Conditions: with flcn_human FLCN

effect of a mutation on the interaction | Variant
with no effect | D351H

Variants of: B2
Conditions: with flcn_human FLCN
Remark: another data set of the same source

effect of a mutation on the interaction | Variant
with no effect | R361H

Variants of: B2
Conditions: with flcn_human FLCN
Remark: another data set of the same source

effect of a mutation on the interaction | Variant
with no effect | R361C

Variants of: B2
Conditions: with flcn_human FLCN
Remark: another data set of the same source

effect of a mutation on the interaction | Variant
with no effect | G386D

Variants of: B3
Conditions: with cc070_human C3orf70, A6NLC5

effect of a mutation on the interaction | Variant
with no effect | R361H

Variants of: B3
Conditions: with cc070_human C3orf70, A6NLC5
Remark: another data set of the same source

effect of a mutation on the interaction | Variant
with no effect | R361C

Variants of: B3
Conditions: with cc070_human C3orf70, A6NLC5
Remark: another data set of the same source

effect of a mutation on the interaction | Variant
with no effect | D351H

Variants of: B3
Conditions: with cc070_human C3orf70, A6NLC5
Remark: another data set of the same source

effect of a mutation on the interaction | Variant
with no effect | G386D

Variants of: B4
Conditions: with aurka_human AURKA

effect of a mutation on the interaction | Variant
with no effect | G386D

Variants of: B4
Conditions: with aurka_human AURKA
Remark: another data set of the same source

effect of a mutation on the interaction | Variant
with no effect | R361H

Variants of: B4
Conditions: with aurka_human AURKA
Remark: another data set of the same source

effect of a mutation on the interaction | Variant
with no effect | R361C

Variants of: B4
Conditions: with aurka_human AURKA
Remark: another data set of the same source

effect of a mutation on the interaction | Variant
with no effect | D351H

Variants of: B5
Conditions: with araf_human ARAF

effect of a mutation on the interaction | Variant
with no effect | G386D

Variants of: B5
Conditions: with araf_human ARAF
Remark: another data set of the same source

effect of a mutation on the interaction | Variant
increasing interaction strength | G386D

Variants of: B5
Conditions: with araf_human ARAF
Remark: another data set of the same source

effect of a mutation on the interaction | Variant
with no effect | R361C

Variants of: B5
Conditions: with araf_human ARAF
Remark: another data set of the same source

effect of a mutation on the interaction | Variant
with no effect | R361H

Variants of: B5
Conditions: with araf_human ARAF
Remark: another data set of the same source

effect of a mutation on the interaction | Variant
with no effect | D351H

Variants of: B6
Conditions: with tet5c_human TENT5C

effect of a mutation on the interaction | Variant
with no effect | R361H

Variants of: B6
Conditions: with tet5c_human TENT5C
Remark: another data set of the same source

effect of a mutation on the interaction | Variant
with no effect | R361C

Variants of: B6
Conditions: with tet5c_human TENT5C
Remark: another data set of the same source

effect of a mutation on the interaction | Variant
with no effect | D351H
